Legend:
[1] = target: Dec (phage decoration protein) with a hexa-histidine tag at the C-terminus; assay: cryo-EM structure
[2] = target: Dec (phage decoration protein), tagged form not told for the experiment; assay: cryo-EM structure

Sequence of Dec (phage decoration protein), tagged form not told for the experiment (Q8HAE6 whole entry): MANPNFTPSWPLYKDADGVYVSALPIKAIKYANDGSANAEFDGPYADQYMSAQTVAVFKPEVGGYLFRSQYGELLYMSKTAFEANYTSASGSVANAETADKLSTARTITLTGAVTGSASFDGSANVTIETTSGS
Sequence of Dec (phage decoration protein) with a hexa-histidine tag at the C-terminus (Q8HAE6 whole entry): as above

Substance | stoichiometry N [1] | stoichiometry N [2]
Dec (phage decoration protein) with a hexa-histidine tag at the C-terminus (natural protein) | 3 | 
Dec (phage decoration protein), tagged form not told for the experiment (natural protein) |  | 3

— article PMC3358469
